Results on 17 molecules are retold here after patent US20150119254, “NUCLEIC ACID FRAGMENT BINDING TO TARGET PROTEIN” (RIKEN, published 2015).

Data set [1] has as its target T1, VEGF-165 (Homo sapiens, UniProt P15692-4 P15692-4:27-191). The data set is described as follows: SPR; 25 C. To be noted: tags: PeproTech; chain copies: 2 (dimer, concentrations stated in terms of dimer). The protocol:
(§1) Five types of sequences were selected from the sequences shown in Table 8 and analyzed for their VEGF-165-binding ability by surface plasmon resonance (SPR) assay using BIACORE 3000 (GE Healthcare Japan Corp.) and 57-mer DNA fragments (Table 9) truncated at a primer region. A previously reported 57-mer DNA fragment comprising the DNA sequence of VEGF-165 was also prepared and analyzed as a control.
(§2) The DNA fragments used in the assay were subjected to curve fitting using BiaEvaluation software attached to Biacore 3000 and reaction models of Langmuir with mass transfer.

Data set [2] addresses T2, IFN-gamma (UniProt P01579 P01579:24-166). The data set is described as follows: SPR; 150 nM IFN-gamma, 930 s. The following applies: tags: PeproTech; chain copies: 2. How it is done:
FIGS. 19A to 19C show the SPR sensorgrams wherein 50 nM, 100 nM, or 150 nM IFN-γ was injected. […] Each sensorgram was normalized to the molecular weight of a DNA fragment bound with SPR, the molecular weight of an injected protein, and the amount of the SPR-bound DNA fragment immobilized (RU). The injection time is 480 seconds. The dissociation time is 480 seconds.
Five types of sequences were selected from the sequences shown in Table 12 and analyzed for their IFN-γ-binding ability by surface plasmon resonance assay and 57-mer DNA fragments (Table 13) truncated at a primer region. A previously reported 57-mer DNA fragment comprising the DNA sequence of IFN-γ was also prepared and analyzed as a control.

In data set [3] the target is T2, IFN-gamma. The data set is described as follows: SPR; Bound 0.14. To be noted: tags: PeproTech; chain copies: 2. For orientation: In SPR one partner is held on a chip, and binding of the other changes the refractive index at the surface.
The target of data set [4] is T1, VEGF-165. The data set is described as follows: SPR; random control. The following applies: tags: PeproTech; chain copies: 2 (dimer, concentrations stated in terms of dimer).
Data set [5] has as its target T1, VEGF-165. As to the kind of experiment: SPR; printed as uM, evidently pM; existing aptamer control. To be noted: tags: PeproTech; chain copies: 2 (dimer, concentrations stated in terms of dimer). How it is done:
as §1, §2

Data set [6] addresses T1, VEGF-165. As to the kind of experiment: SPR; 10 nM VEGF-165, 930 s. The following applies: tags: PeproTech; chain copies: 2 (dimer, concentrations stated in terms of dimer). How it is done: FIGS. 15A to 15C show the SPR sensorgrams wherein 2.5 nM, 5 nM, or 10 nM VEGF-165 was injected. […] Each sensorgram was normalized to the molecular weight of a DNA fragment bound with SPR, the molecular weight of an injected protein, and the amount of the SPR-bound DNA fragment immobilized (RU). The injection time is 480 seconds. The dissociation time is 480 seconds.
as §1

The target in data set [7] is T1, VEGF-165. As to the kind of experiment: SPR; existing aptamer control; 25 C. The following applies: tags: PeproTech; chain copies: 2 (dimer, concentrations stated in terms of dimer).
The target in data set [8] is T2, IFN-gamma. As to the kind of experiment: SPR; existing aptamer control. The following applies: tags: PeproTech; chain copies: 2.
Data set [9] addresses T1, VEGF-165. The data set is described as follows: SPR; previously reported aptamer control. To be noted: tags: PeproTech; chain copies: 2 (dimer, concentrations stated in terms of dimer); label: 5' biotin-dT. The protocol:
For comparison, 98-mer (full length) N43Ds-09-1, full-length DNA fragments N43Ds-09-1(AT) and N43Ds-09-1(G) with the artificial base Ds replaced with a natural base, and a control DNA fragment reported as a VEGF-binding DNA aptamer (VEGF binding DNA 35, 35 mer) were also assayed under the same conditions. As in the full length binding analysis of Example 2, each DNA fragment having biotinylated T added to the end for the direct immobilization of the DNA fragment onto an SA chip (GE Healthcare Japan Corp.) was prepared by chemical synthesis and gel purification. For the immobilization of each DNA fragment onto the sensor chip, a DNA solution diluted with a PBS solution to 25 nM was subjected to folding treatment (90° C. for 3 min→60° C. for 3 min→25° C.), and Nonidet P-40 was then added thereto at a final concentration of 0.05%. The resulting DNA solution (5 μl; corresponding to 1 min) was injected to the SA chip at a flow rate of 5 μl/min to immobilize the DNA fragment onto the chip. […]
The interaction between the immobilized DNA fragment and VEGF-165 was detected under monitoring by the injection of 12.5 nM, 25 nM, 37.5 nM, 50 nM, 62.5 nM, and 75 nM VEGF-165 solutions (diluted with buffer solution A; in terms of dimer) at the Kinetic Injection mode. […]

Data set [10] deals with T1, VEGF-165. As to the kind of experiment: SPR; 25 C. To be noted: tags: PeproTech; chain copies: 2 (dimer, concentrations stated in terms of dimer). This is another data set of the same source.

T2 sequence (P01579 24-166, one chain of several): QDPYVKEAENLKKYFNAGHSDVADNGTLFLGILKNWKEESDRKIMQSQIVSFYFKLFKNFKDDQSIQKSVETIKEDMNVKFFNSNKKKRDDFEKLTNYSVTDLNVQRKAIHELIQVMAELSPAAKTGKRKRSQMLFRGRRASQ
T1 sequence (P15692 other isoform, or with tags, fused parts or gaps): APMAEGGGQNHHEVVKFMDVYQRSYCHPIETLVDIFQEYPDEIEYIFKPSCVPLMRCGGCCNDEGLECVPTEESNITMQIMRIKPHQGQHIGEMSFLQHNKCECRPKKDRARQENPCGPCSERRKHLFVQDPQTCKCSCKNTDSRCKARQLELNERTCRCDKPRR

B1: VG20A-57 (ssDNA)
DNA: TCAGTCCACGGTAAACTGAGTCCGAAGGGGCATGCAGTGAACCCGAATGGGTCCGG
Molecule B1 showed a Kd with VEGF-165 [1] of 0.22 nM.

B2: IF11A-57 (ssDNA)
DNA: ATCAGTCCACCTATGTGGGTTGGATGGGGTGTATGTTAGTAGGGCTAAGGAGGTGG
With B2, the binding signal with IFN-gamma [2] turned out to be 0.46 bound ratio.

B3: IFd1-3A-45 (ssDNA)
DNA: TCGGGTCATTTAATAATGTAGGTATGGGCTAGGCAGCTAGTGGAT
Take B3: in the data set with IFN-gamma [3], the Kd is > 200 nM.

B4: Random-45 (ssDNA)
DNA: ATGCTAGAGCATTGCGTAGAAGCTTGATATGTTGCTGGCCCGGAC
As to B4, in the data set with VEGF-165 [4], the binding signal came to 0.01 bound ratio.

B5: contVG-57 (ssDNA)
DNA: TCTGTCAATCGATCGTATCAGTCCACAAGCCCGTCTTCCAGACAAGAGTGCAGGGC
Molecule B5 had a Kd in the data set with VEGF-165 [5] of 0.046 nM.

B6: VG08A-57 (ssDNA)
DNA: ATCAGTCCACGAGATGGATGGTAGTGGCCGAACGGGGGGGATGGAGAAGCTGGCTG
Turning to B6, the binding signal with VEGF-165 [6] is 0.01 bound ratio.

B7: IF07aA-57 (ssDNA)
DNA: ATCAGTCCACTCCTTCTGTCATAGGGCAGGCGCATTTGGTGTAGAGTTTATCTTGG
For B7, the binding signal in the data set with IFN-gamma [2] was 0.19 bound ratio.

B8: VG02bA-57 (ssDNA)
DNA: ATCAGTCCACATACGCGGGGGTGTTGAAGGGTTAGTCGGAAGTAGTGTGTACAGAG
For B8, in the data set with VEGF-165 [6], the binding signal was found to be 0.31 bound ratio.

B9: contVG-45 (ssDNA)
DNA: ATCGTATCAGTCCACAAGCCCGTCTTCCAGACAAGAGTGCAGGGC
In the data set with VEGF-165 [7], B9 gave a Kd of 0.081 nM.

B10: IF07bA-57 (ssDNA)
DNA: ATCAGTCCACTCGGGTCGTTTAATAATGTAGGTATGGGCTAGGCAGCTAGTGGATG
Consider B10, for which the binding signal with IFN-gamma [2] turned out to be 0.05 bound ratio.

B11: contIF-57 (ssDNA)
DNA: TTCTGTCAATCGATCGTATCAGTCCACAATGGGGTTGGTTGTGTTGGGTGTTGTGT
Regarding B11, in the data set with IFN-gamma [8], binding was put at a Kd of 67 nM.

B12: VG02aA-57 (ssDNA)
DNA: ATCAGTCCACATCGAGCGTGAGGTCCGAAAGGCGACTCTTATAACATCAAGTAATG
In the data set with VEGF-165 [6], B12 displayed a binding signal of 0.01 bound ratio.

B13: VG01A-57 (ssDNA)
DNA: ATCAGTCCACAAAGTGCTGGGTCCGAATGGCGGGGGGTTAGGCCTCTTTGGGGCGG
In turn, B13 came in with a binding signal with VEGF-165 [6] of 0.37 bound ratio.

B14: IF04A-57 (ssDNA)
DNA: ATCAGTCCACTAATCAGGAAGAAGATAGGGTTTGTCTTATGTTGCCACGCTGGGAG
Consider B14, for which the binding signal with IFN-gamma [2] was 0.08 bound ratio.

B15: VEGF binding DNA 35 (ssDNA)
DNA: TTGCACTCTGTGGGGGTGGACGGGCCGGGTAGATA
As for B15, the Kd in the data set with VEGF-165 [9] is > 100 nM.

B16: contVG-47 (ssDNA)
DNA: CGATCGTATCAGTCCACAAGCCCGTCTTCCAGACAAGAGTGCAGGGC
B16 registered a dissociation constant Kd in the data set with VEGF-165 [7] of 0.044 nM.

B17: VGd1-2A-45 (ssDNA)
DNA: GTAAACTGCGTCCGAAGGGGCATGCAGTGAACCCGAATGGGTCCG
In the data set with VEGF-165 [10], B17 showed a Kd of 0.5 nM.

As usually defined, the Kd is a measure of binding affinity in units of concentration.
